This is an account of results in FireProtDB (doi:10.1002/pro.398).

By Tm is commonly meant the temperature at the midpoint of the melting transition.

The conditions of the series: Gallus gallus, Thermal, CD, whole UniProt chain shown.

B1: Ovalbumin wild type, P01012 (protein)
chain: MGSIGAASMEFCFDVFKELKVHHANENIFYCPIAIMSALAMVYLGAKDSTRTQINKVVRFDKLPGFGDSIEAQCGTSVNVHSSLRDILNQITKPNDVYSFSLASRLYAEERYPILPEYLQCVKELYRGGLEPINFQTAADQARELINSWVESQTNGIIRNVLQPSSVDSQTAMVLVNAIVFKGLWEKAFKDEDTQAMPFRVTEQESKPVQMMYQIGLFRVASMASEKMKILELPFASGTMSMLVLLPDEVSGLEQLESIINFEKLTEWTSSNVMEERKIKVYLPRMKMEEKYNLTSVLMAMGITDVFSSSANLSGISSAESLKISQAVHAAHAEINEAGREVVGSAEAGVDAASVSEEFRADHPFLFCIKHIATNAVLFFGRCVSP
For B1, the Tm (pH 7, Phosphate 10 mM) is 69.8 °C and the Tm (pH 10, Glycine-NaOH 0.1 M) was determined as 78.9 °C.
